B1: S. pombe Pol I subunit A135 (natural protein, UniProt Q9P7X8 1-1174, looked up)
chain: MSFQTLERERTFKNPPKDGTSFPDLQKAVKPHVDSFNALTNAGLLNYAVKEIGEKCAFDSITQEEGGALKFGNKISFRVDEVQIAKPMLSSRERSSINRKVYPAEARERLTTYKSRLVLKFSWSVNGGPRQSEMREVGMIPIMVRSNRCHLEGLSPAELIAHKEESEEMGGYFIVNGIEKLIRMLILPKRNHPTAIIRPSFANRGTSYSQYGLSIRCVRPDQSSLTNTLHYLNNGVTMFRFHWRKNEYLIPSMMILKALLETSDKEIFEGIVGKDLGNTFLTDRVELMLRAYKSYGLYSQTETLQYLGSKFRVVLGVAEDLTDVEVGRFLLQKVVLVHLREAKDKFRLLLFMIRKLYALVAGECCADNPDSPQHQEILLGGFLYGQILKEKIEDWLNSIRAQINLDVRRSAPGVDFSDRKYLTRVFSKINNDIGTKLQYFLSTGNLVSNTGLDLQQATGYTVVAEKLNFYRFLSHFRMVHRGAFFAELKTTTVRKLLPEAWGFMCPVHTPDGSPCGLLNHLARKCEIVTHPSDVSQIPSLLLSLGVDPPSVVGHESGWGCVQLDGKIVGWCTYKLAKHVADVLRLMKIEYAVKLRNGTATEPAKVPLDLEIGYVPPSHNGQYPGLYLFSNPARMVRPVKHISTGELDMLGPFEQVYMDIACFPKEIVPKVSTHVEYSPTNVLSIVANMTPFSDFNQSPRNMYQCQMGKQTMGTPGTALRYRTDNKLYRLQTGQTPVVRPKLHNTYGLDHYPNGTNAVVAVISYTGYDMEDAMILNKSAHERGFGYGTVYKGESFDLSQKRRRGEPVVHHFGFAPGSTPRREWLQKLDADGLPFIGIKLEDGDPIVAYYDESTGQNFIETYHGTEPGFVDEVRLLGNDVGDSECQQIHVKLRITRSPIIGDKFSSRHGQKGICSQKWPTVDMPFTESGMQPDIIINPHAFPSRMTIGMFIESLAGKAGACHGLAQDSTPFIYSEQQTAADYFGEQLVKAGYNYHGNEPMYSGITGQEMKADIYIGVVYYQRLRHMVSDKFQVRTTGPIHNLTRQPVKGRKRAGGIRFGEMERDAVIGHGTSFLMQDRLMNCSDYAQSWVCRDCGSIISIMSTISMNGVGSASEVRCRSCAKPALGLEDTSDIWQDGSGKKFVGGTNTTLIALPSVFNYLTAELTAMNIKMMLEVK
notes: RNA polymerase I subunit A135, S. pombe; source: endogenous, S. pombe, purified as part of Pol I (Ni-NTA, MonoQ, MonoS)
B2: S. pombe Pol I subunit AC40 with C-terminal flag-his tag (natural protein, UniProt O94616 1-348, looked up)
chain: MAAVDRSRTEISVLSDRVTDVGSVDFPGYYFDEDNIWDLDKFKKNLKVSITSLDQETMVFEISGIDASIANAFRRILIAEIPTLAFEFVYIINNTSIIQDEVLSHRIGLVPISADPDMFKWFQHPLPGQEATHTDYDTVVFSLNKKCEFNKNAATDEKDPKRLYVNSEVYSGDLIWKPQGRQEERFADNPIRVVNPDIVVAKLRPGQEIDLEAHAILGIGQDHAKFSPVATASYRLLPTIHILSPIEGEDAVKFQKCFPKGVIELEEGPDGKKQARVADVRKDTVSRECLRHPEFADKVQLGRVRDHYLFSVESTGIMKPDVLFIKSIAVLKSKCLAVKSSLQNISSD
notes: RNA polymerase I and III subunit AC40, S. pombe; source: endogenous, genomically tagged S. pombe strain, purified as part of Pol I (Ni-NTA, MonoQ, MonoS); not shown: 10xHis, C-terminal, kept
B3: S. pombe common RNA polymerase subunit Rpb12 (natural protein, UniProt P48011 1-63, looked up)
chain: MNHPTSTGGTAFNPPRPATMIYLCADCGARNTIQAKEVIRCRECGHRVMYKMRTKRMVQFEAR
notes: general (common) RNA polymerase subunit Rpb12, S. pombe; source: endogenous, S. pombe, purified as part of Pol I (Ni-NTA, MonoQ, MonoS)
B4: S. pombe Pol I subunit A43 (natural protein, UniProt O43036 1-173, looked up)
chain: MPDLSLYKQTVDLYLSIAPGHSRDPLNAIQEHMDSMILSKLPRINGIVLAYDNIRFLEKSAKVMYDSPFSFIWVRVDVLVFSPKKGDCLEGKINLVSPSHIGLLILGIFNASIPRKSIPKDWIFIEPDTTEEQGRWKTNDGNILEPGKDLEFVVDGIQREAGLTMVQGTLANS
notes: RNA polymerase I stalk subunit A43, S. pombe; Lacks the connector domain of the S. cerevisiae protein; also called stalk subunit A43; source: endogenous, S. pombe, purified as part of Pol I (Ni-NTA, MonoQ, MonoS)

The target of test [1] is T1, S. pombe Pol I subunit A190 (Schizosaccharomyces pombe (endogenous …, UniProt P15398 1-1689)).
T1 construct: RNA polymerase I subunit A190, S. pombe; source: endogenous, S. pombe, purified as part of Pol I (Ni-NTA, MonoQ, MonoS)
Description: cryo-EM structure; dimer particles in the 'monomer' dataset of BS3-crosslinked Sp Pol I after SEC (5 mM HEPES pH 7.8, 1 mM MgCl2, 10 µM ZnCl2, 150 mM KCl, 5 mM DTT); C2 symmetry imposed; 4.5 Å; model by placing two monomers and rigid body fitting of subdomains. As to conditions: both partners purified.

Test [2] has as its target B1. The test is described as above. The following applies: both partners purified.

T1 sequence (P15398 whole entry): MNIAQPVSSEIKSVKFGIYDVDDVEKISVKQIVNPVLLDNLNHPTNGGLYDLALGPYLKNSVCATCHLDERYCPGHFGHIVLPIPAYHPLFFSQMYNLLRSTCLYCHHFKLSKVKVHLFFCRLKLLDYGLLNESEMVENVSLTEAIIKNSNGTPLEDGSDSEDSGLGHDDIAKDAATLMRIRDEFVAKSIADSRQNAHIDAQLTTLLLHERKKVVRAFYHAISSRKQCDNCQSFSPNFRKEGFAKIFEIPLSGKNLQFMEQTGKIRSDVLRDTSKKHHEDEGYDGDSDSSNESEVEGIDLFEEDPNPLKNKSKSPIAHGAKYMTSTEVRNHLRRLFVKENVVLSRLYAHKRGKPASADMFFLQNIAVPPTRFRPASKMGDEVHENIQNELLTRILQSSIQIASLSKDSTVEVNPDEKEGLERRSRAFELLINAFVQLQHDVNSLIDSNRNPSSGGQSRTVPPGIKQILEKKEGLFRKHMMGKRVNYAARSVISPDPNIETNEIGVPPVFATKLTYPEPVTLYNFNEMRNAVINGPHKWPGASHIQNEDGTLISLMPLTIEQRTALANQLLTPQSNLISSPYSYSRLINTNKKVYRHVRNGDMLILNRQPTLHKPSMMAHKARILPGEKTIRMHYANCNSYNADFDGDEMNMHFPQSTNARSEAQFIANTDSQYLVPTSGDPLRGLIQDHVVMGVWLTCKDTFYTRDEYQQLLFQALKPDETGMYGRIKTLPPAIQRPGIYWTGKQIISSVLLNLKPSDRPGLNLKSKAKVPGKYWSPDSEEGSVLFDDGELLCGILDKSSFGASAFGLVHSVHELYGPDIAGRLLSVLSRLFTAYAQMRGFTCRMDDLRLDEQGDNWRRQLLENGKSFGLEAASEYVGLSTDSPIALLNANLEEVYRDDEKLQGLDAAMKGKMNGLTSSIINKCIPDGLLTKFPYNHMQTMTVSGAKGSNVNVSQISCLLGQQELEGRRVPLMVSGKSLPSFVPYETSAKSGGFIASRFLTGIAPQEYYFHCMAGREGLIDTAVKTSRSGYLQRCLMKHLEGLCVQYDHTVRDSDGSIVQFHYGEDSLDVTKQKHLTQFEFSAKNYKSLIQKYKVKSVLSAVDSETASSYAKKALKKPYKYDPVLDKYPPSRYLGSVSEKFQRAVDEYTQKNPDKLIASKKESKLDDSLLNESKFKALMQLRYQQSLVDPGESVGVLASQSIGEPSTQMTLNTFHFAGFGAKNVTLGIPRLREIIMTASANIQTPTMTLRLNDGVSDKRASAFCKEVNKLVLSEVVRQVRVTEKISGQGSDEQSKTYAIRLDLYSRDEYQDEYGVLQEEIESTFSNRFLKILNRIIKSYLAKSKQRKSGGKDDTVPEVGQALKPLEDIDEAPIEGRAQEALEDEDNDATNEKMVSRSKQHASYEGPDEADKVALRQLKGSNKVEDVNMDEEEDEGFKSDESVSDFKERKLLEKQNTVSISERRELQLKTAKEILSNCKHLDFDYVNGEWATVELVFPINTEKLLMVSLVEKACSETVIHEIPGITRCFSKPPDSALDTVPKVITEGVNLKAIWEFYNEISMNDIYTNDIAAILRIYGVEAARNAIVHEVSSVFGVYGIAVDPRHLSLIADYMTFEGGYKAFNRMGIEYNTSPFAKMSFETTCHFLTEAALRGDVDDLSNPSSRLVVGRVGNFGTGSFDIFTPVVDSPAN

B1: the binding result in test [1] is “binds”.

Turning to B2, the binding result in test [1] was “binds”.

For the molecule B3, the binding result in test [1] is listed as “binds”.

As for B4, the binding result in test [2] is given as “binds”.

The values above are taken from publication PMC7859239, “Conserved strategies of RNA polymerase I hibernation and activation” (Nature Communications, 2021).
